{"source": "patent US20220119792", "proteins": {"B1": {"name": "reverse caspase-3 (protein)", "chain": "MIETDSGVDDDMACHKIPVEADFLYAYSTAPGYYSWRNSKDGSWFIQSLCAMLKQYADKLEFMHILTRVNRKVATEFESFSFDATFHAKKQIPCIVSMLTKELYFYHDEVDGENTENSVDSKSIKNLEPKIIHGSESMDSGISLDNSYKMDYPEMGLCIIINNKNFHKSTGMTSRSGTDVDAANLRETFRNLKYEVRNKNDLTREEIVELMRDVSKEDHSKRSSFVCVLLSHGEEGIIFGTNGPVDLKKITNFFRGDRCRSLTGKPKLFIIQACRGTELDCGIETD"}}, "key": {"[1]": {"biological_target": "AH6-DEVD-hGH expressed from pAPT-Y-AH6-DEVD-hGH-Lacuv5-rev-CASP3", "sequence (chain, as listed by the source)": "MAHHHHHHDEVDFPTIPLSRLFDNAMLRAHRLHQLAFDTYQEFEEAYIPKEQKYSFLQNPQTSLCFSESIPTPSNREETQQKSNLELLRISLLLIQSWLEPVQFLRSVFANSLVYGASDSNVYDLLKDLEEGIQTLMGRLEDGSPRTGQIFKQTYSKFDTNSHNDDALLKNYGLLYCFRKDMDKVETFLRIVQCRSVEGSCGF"}, "[2]": {"biological_target": "DH6-DEVD-hGH expressed from pAPT-Y-DH6-DEVD-hGH-Lacuv5-rev-CASP3", "sequence (chain, as listed by the source)": "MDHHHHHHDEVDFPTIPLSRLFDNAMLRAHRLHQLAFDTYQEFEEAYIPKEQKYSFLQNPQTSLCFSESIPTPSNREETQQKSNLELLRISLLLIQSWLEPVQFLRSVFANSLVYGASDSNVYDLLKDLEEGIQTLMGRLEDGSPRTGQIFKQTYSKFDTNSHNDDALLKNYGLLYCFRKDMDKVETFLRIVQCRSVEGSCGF"}, "[3]": {"biological_target": "H6-DEVD-hGH expressed from pAPT-Y-H6-DEVD-hGH-Lacuv5-rev-CASP3", "sequence (chain, as listed by the source)": "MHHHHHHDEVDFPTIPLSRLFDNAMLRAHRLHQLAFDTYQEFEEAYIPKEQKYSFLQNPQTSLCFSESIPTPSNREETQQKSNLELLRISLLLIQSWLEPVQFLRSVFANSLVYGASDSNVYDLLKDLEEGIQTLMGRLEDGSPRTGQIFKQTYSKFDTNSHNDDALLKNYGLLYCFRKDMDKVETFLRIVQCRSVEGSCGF"}, "[4]": {"biological_target": "H6-DEVD-hGH expressed from pETDuet-H6-DEVD-hGH-T7-rev-CASP3", "sequence (chain, as listed by the source)": "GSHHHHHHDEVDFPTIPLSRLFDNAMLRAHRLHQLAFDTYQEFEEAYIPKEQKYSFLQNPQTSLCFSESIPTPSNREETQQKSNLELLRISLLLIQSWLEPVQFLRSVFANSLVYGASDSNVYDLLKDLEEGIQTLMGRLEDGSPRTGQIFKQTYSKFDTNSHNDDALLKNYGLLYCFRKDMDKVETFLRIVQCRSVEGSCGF"}, "[5]": {"biological_target": "HAK-DEVD-hGH expressed from pAPT-Y-HAK-DEVD-hGH-Lacuv5-rev-CASP3", "sequence (chain, as listed by the source)": "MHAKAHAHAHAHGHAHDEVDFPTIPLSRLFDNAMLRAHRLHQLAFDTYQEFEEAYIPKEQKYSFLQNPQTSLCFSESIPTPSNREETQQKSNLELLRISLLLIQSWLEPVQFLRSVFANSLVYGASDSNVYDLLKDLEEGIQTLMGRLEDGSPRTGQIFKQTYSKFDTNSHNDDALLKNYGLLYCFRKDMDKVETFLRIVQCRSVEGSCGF"}, "[6]": {"biological_target": "KH6-DEVD-hGH expressed from pAPT-Y-KH6-DEVD-hGH-Lacuv5-rev-CASP3", "sequence (chain, as listed by the source)": "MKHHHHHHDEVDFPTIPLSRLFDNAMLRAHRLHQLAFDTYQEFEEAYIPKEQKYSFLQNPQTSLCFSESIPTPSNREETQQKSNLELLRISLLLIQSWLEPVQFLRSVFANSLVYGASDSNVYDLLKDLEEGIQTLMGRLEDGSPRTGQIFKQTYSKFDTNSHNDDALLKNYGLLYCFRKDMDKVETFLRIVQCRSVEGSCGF"}, "[7]": {"biological_target": "NH6-DEVD-hGH expressed from pAPT-Y-NH6-DEVD-hGH-Lacuv5-rev-CASP3", "sequence (chain, as listed by the source)": "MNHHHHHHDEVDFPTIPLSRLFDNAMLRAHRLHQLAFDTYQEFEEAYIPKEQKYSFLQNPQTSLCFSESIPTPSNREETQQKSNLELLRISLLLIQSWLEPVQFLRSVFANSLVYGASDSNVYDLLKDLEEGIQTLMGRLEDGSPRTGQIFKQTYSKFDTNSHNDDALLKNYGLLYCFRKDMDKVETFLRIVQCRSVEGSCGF"}}, "data": [{"protein": "B1", "values": [{"measurement": "cleavage of synthetic tag (Western blot, co-expression in E. coli)", "setting": "[1]", "value": "99.30% or more of the synthetic tag was cleaved"}, {"measurement": "cleavage of synthetic tag (Western blot, co-expression in E. coli)", "setting": "[2]", "value": "99.30% or more of the synthetic tag was cleaved"}, {"measurement": "cleavage of synthetic tag (Western blot, co-expression in E. coli)", "setting": "[3]", "value": "99.30% or more of the synthetic tag was cleaved"}, {"measurement": "cleavage of N-terminal methionine and synthetic tag (Western blot, co-expression in E. coli)", "setting": "[4]", "value": "96.12% of the N-terminal methionine of the growth hormone protein and the synthetic tag was cleaved"}, {"measurement": "cleavage of synthetic tag (Western blot, co-expression in E. coli)", "setting": "[5]", "value": "99.30% or more of the synthetic tag was cleaved"}, {"measurement": "cleavage of synthetic tag (Western blot, co-expression in E. coli)", "setting": "[6]", "value": "99.30% or more of the synthetic tag was cleaved"}, {"measurement": "cleavage of synthetic tag (Western blot, co-expression in E. coli)", "setting": "[7]", "value": "99.30% or more of the synthetic tag was cleaved"}]}]}
